Measured values reported in article PMC6043352 (Journal of molecular biology, 2018).

Assays:
[1] = biological target: T1, ubiquitin (UniProt P0CG47 1-76); assay: ITC
[2] = biological target: T1, ubiquitin; assay: NMR titration

B1: human REV1 (932–1039) (domain or fragment, UniProt Q9UBZ9 932-1039, looked up)
chain: VPSPSQLDQSVLEALPPDLREQVEQVCAVQQAESHGDKKKEPVNGCNTGILPQPVGTVLLQIPEPQESNSDAGINLIALPAFSQVDPEVFAALPAELQRELKAAYDQR
B1 gave a Kd [1] of roughly 49 µM and a Kd [2] of roughly 27 µM.
